This note sets out measurements from IntAct's records for PubMed 31570497.

B1: Envelopment polyprotein (Uukuniemi virus (strain S23)), P09613 (parent)
chain: MVRTYLLLLLLCGPATPFFNHLMDVTRRLLDSSNATWQRDQPDTHRLSRLDAHVMSMLGVGSHIDEVSVNHSQHLHNFRSYNCEEGRRTLTMMDPKSGKFKRLKCNENQTLSKDCASCIEKKSSIMKSEHLVYDDAICQSDYSSPEAMPDHETHLCRIGPLHIQHCTHEAKRVQHVSWFWIDGKLRVYDDFSVSWTEGKFLSLFDCLNETSKDHNCNKAVCLEGRCSGDLQFCTEFTCSYAKADCNCKRNQVSGVAVVHTKHGSFMPECMGQSLWSVRKPLSKRSVTVQQPCMDCESDCKVDHILVIVRHFYPDHYQACLGSTCLTGRAKDKEFKIPFKMADRLSDSHFEIRIWDKERSNEYFLESRCESVDACAAITCWFCRANWANIHCFSKEQVLILVAVSSLCILLLASVLRALKVIATFTWKIIKPFWWILSLLCRTCSKRLNKRAERLKESIHSLEEGLNNVDEGPREQNNPARAVARPNVRQKMFNLTRLSPVVVGMLCLACPVESCSDSISVTASSQRCSTSSDGVNSCFVSTSSLLQVSPKGQESCLILKGPTGTAVDSIRIKTTDIKLECVRRDLYWVPRVTHRCIGTRRCHLMGACKGEACSEFKINDYSPEWGHEEELMAQLGWSYCVEQCGGALCQCFNMRPSCFYLRKTFSHLSQDAFNIYECSEWSYRINVLVSTNSTHSNLTLKLGVPDSIPHGLISLSSVSQPPAIAYSECFGEDLHGTKFHTVCNRRTDYTLGRIGEIQCPTKADALAVSKRCISSDSIIFSKVHKDSVDCQSSIIDPMTIRNRNKLPSTVGSVTFWPTETSVEAAIPDLASATMLIRLDGYTIQFRSDSNKCSPRFLSLSGCYNCEAGAKLELEHVTDFGTALGILECPSLGYTTYYEVKNTLEKSIRTMHLNGSHVEAKCYFRCPNSESQLTIRGELIYLFNDDIRHHNQTLSPGLSPKSGSGWDPFGWFKASWLRAIWAILGGTVSLIIGVVIIYMVFTLCLKVKKS

Variants of B1 are the subject of this test. The note with it: with gbf1_human GBF1, Q92538.
gbf1_human GBF1, Q92538, sequence (Q92538 whole entry): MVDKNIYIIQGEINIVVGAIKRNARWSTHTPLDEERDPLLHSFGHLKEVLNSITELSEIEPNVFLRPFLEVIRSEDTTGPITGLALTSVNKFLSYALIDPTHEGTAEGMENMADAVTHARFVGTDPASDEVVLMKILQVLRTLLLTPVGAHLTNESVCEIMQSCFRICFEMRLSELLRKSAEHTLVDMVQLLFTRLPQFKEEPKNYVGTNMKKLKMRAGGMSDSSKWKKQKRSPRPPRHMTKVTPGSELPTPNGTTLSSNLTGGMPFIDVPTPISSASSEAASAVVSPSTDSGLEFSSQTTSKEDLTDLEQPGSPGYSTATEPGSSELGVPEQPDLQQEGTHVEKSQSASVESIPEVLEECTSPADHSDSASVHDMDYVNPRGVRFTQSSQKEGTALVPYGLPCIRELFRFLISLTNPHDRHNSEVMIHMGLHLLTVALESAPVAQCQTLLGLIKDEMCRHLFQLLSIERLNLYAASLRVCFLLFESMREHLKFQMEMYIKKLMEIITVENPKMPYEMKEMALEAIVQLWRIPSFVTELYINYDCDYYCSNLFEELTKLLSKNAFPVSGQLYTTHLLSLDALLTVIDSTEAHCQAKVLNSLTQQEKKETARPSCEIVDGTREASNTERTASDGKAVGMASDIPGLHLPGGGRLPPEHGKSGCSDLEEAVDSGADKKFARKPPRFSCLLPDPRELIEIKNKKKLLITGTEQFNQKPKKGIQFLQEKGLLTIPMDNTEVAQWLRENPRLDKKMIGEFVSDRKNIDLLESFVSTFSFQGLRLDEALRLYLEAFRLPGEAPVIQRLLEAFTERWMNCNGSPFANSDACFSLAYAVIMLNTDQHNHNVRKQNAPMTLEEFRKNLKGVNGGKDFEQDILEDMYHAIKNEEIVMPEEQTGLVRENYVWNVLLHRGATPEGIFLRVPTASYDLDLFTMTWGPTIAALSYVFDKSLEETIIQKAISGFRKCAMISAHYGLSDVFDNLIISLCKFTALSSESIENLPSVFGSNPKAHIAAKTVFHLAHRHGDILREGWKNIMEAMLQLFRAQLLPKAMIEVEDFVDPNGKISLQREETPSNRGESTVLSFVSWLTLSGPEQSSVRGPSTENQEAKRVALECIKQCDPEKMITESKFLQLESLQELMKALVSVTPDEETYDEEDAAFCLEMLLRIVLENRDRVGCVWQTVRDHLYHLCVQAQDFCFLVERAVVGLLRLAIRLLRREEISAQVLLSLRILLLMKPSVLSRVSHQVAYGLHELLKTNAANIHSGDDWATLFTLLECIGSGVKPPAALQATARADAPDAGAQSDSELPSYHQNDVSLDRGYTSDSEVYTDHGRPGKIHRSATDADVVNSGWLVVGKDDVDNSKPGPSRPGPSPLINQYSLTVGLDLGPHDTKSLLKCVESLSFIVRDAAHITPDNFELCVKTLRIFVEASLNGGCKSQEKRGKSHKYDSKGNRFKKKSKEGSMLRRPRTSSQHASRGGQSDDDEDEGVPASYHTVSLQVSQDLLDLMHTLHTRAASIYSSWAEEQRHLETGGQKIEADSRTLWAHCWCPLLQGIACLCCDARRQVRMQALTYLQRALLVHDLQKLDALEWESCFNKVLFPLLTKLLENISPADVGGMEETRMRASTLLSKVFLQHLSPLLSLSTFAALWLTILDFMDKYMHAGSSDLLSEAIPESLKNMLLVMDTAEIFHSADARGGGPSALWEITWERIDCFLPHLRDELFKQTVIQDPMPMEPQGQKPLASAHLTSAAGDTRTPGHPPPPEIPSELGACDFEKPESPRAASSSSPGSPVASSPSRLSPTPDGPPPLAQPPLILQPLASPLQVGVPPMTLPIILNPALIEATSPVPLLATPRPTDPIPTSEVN
For L461A;E462A;E463A;G464A;L465A, the “effect of a mutation on the interaction” value was “with no effect”. L438A;L439A: the “effect of a mutation on the interaction” value is recorded as “with no effect”.
